Source: the DeepSol protein solubility set

assay: soluble on expression in E. coli; label from the status in PepcDB or PDB records

Question: With “MGSDKIHHHHHHMFIGREKELATLNGLYNSDKFEFAVIYGRRRVGKTALISHFIQDKKAIYFMGVESNEKQNLENFSQAIMEYASGIMPGTSFVSFQAAIEYVFKLCENERLVLVIDEYPYVAKASKSMASTLQMLIDKNKDNSKMMLILCGSSMSYMEDNVLAYKAPLYGRRTAQMKILPFDFEDSCKYFNGFSAEDMALIYGIVGGTPQYLLQMNDSMSVEDNIKNVFLNPASAIFEEPENLLKQEVREPAVYNAIITAVATGSSRMSEIATKIGETTSVCSQYMKNLINLGLIRKETPYGEKESRKSIYAIADNMFRFWYRFIPDNNSIISRGATELAYKRIAPNLSDYMGRIFEEICMQYMWKLLLDGESPVEFSNLGRWWGTDPQERIQTEIDIMGDQDKSTVLFGECKWINENVDVKVLEKLKKRSRLFRYENVHLFLFAKKGFTQGCIEEAGKMGNVSLVTYDQIYRYLNNIDLSQ” as the sequence, how does the “soluble on expression in E. coli” value read?
Answer: The value was “not soluble”.

Question: For “MGSDKIHHHHHHMFIKLNKGLDLPISGEPEQCVYAATAVRHIAVAGVDYIDLKPTMKVTEGDRVRLGQPLFEYKKLPGVVFTAPGAGRIVAINRGTRRILLSVVLQLDEQEDEETFIKYAPDELSNLADEQVKENLLISGLWTTLRTRPYSKVPDPATRPAAIFITAIDSNPLAADPVPIITAEMESFNHGLRILSRLTDGPLWVCQSPQAKLSLPEDLPQLQQARFAGPHPAGLPGTHIHFLQPVSAYKTVWYLNYQEVIAIGKLFVTGRLWTERIVALGGPGVKKPRLLRTRLGASLEELLAGELVESMDKRVISGSVWSGRKAVDELAFLGRHHLQVTVIGEKSEREFLGWLNPGGNKYSKLNVLFSSFFRKKRKFEFTASQQGSPRAMIPIDTFEEVMPLDILPAQLLRALLVMDTDMAQKLGCLELDEEDLALCSFICVGKHDYGVILRENLRQIEKEG”, which “soluble on expression in E. coli” value is on record?
Answer: Its value is “not soluble”.

Question: Which “soluble on expression in E. coli” value does the source give for “MGSDKIHHHHHHMFKKVSRDPVHSEIYLYPLEILATDTKVVQRLRFLSQLAGATVVYPGATHTRFAHSLGTMHVAGLYARNLFKESDRIRIVRLAALLHDVGHGPFSHQFDDVVFKRYGYEDGHDEFRNRLITEKLPEEMMRVFNSYNERLKQAVIEDIRESVGEVSLEDAFQEIAKRVVEVYRGEETGSVDFNIIQGPLGADRLDFLLRDSYYSGVGHFAPMNVDRVLRNSLVKEVDGKEILCYHVKVVDNIYSILFSRFMMYKNVYFHKTSRAADLMIQEILLRACEILDLEERLKDLDEFLELTDYSILRELELKGDSETKKLVERFKNRDLWKMVVERPFSAEGFDPSELSLSAARNLIDKIVENIDRVLSSVNVEDSDKSILEEIRDNKEKFFRIDTPYKLTIFHPDEFLQNNVFLYDPKHDEILTVDEYVKKYPAYRLMVSNMIQIVRVYVTEDVREVLFKYGVIPEDGRRVITRW” here?
Answer: The value was “not soluble”.

Question: For “MGSDKIHHHHHHMFLKENSVDDFDKQLDDLFKTTKTSRISELSEALGVSPTTIRTWRGRNKIPASAFRKAELSIQNDSDVKTDTRISLSFYEISASAGGGALVEVEEQANLISFEPEWLNKEIGVNANDVFLMLVDGDSMYPTLKNGAMIMVNKHFNGLSDGIYVMRHEQNLLVKRLQMLPNGIIKVKSDNNLYEPWEINKENLDGTDIEIIGRVVWSGQRM”, which “soluble on expression in E. coli” value is on record?
Answer: The value was “not soluble”.

Question: With “MGSDKIHHHHHHMFRTFTEKRSEWKEQISEEIIPLIHRGMVNRKQWLLVNLKGRLWSGSLRDQFMFENIEWLRNYYKGEKLIVWAHNYHIRKNRSLLLELLRIKTVDHLLAKKYADRVFSVGFYAGSGTCLTPYKDLHEITMINQYHLELLLKELNGHTFFLPTNIGAKRNAWNKQAWWLLETRLLGMAPLVLKPIKAYDAIFFIKCVKPPQELGG” as the sequence, how does the “soluble on expression in E. coli” value read?
Answer: Its value is “not soluble”.

Question: For “MGSDKIHHHHHHMFSDMTLLQYINSEDRGFFLPDMGTNGLFLINKKAYEVYDSVDLQLELAKTMDKYFESDFIYSFCDGITFCETLGLETLRPDYDFPSVLTHTITDRDKLRKLDVPDPYTSGRMPLNIESLSVISKSIKKPLYESIQGPFTLAGQLAGATQLLRCIITDKKFVEELLEFTTELVRRYAVAANKAGAKYISIAEPTSVTLSKDRFDEFIVKNLNKIYNELDCWKGMHICGDTRELLDNMLSCNIDAVSLDQILDYEEIAPMIPRDIVLIGNLDPIKLLGRSKPDKIRRETLKLLKKMRRYDNFLCDFGCNCLNTTPVENLQAAIKAGRISYKELDRIDIDEL”, which “soluble on expression in E. coli” value is on record?
Answer: Its value is “not soluble”.

Question: With “MGSDKIHHHHHHMFSIGKHSDFTPSCVSRMLGDLHFVNQGTAMKFSRYFFSLLTTLPLLACTQVEAPVPEALSQSTGHTAGAAQPQESVIGGSLPIGDSSRTSLDWQGSYEGVVPCASCEGIKTRLTLNNDGTYLLQSQYLGKEQDGKEPKVFEEQGKFSWNASGGAIQLENGAWYQVGENQLFMLDREGKRITGVLAGHYRLLKKQSALLPRF” as the sequence, how does the “soluble on expression in E. coli” value read?
Answer: Its value is “not soluble”.

Question: Which “soluble on expression in E. coli” value does the source give for “MGSDKIHHHHHHMFSISHPGDFESLKIIVNEINKLRKINKKLKKESFEVYVGFPEFVGTGRATLYKPNFEDLAKQVNYAKKHNVRFEVVINASCIGGMHLTPKGISYINWIFSQLKNIGVDSVALSDPYLVDLAKNNGLEVNVSCIALVDSLDKALFWDEKEVYAITLDSSINRHFDIIQEIRENVSCKLKILVNEACLYKCPMRIQHFNFFSHANAQNIPALDDYYYNKCINLRIKKKELIIKSPFIRPEDLKYYKGLVDIFKISGRSHPIGWIKRVINAYLNERWDGNLMELLDCPRELEHFYYLDNRALDGAIEYWKSCNKLCSKCNFCKELAEKALKVKY” here?
Answer: The value was “not soluble”.

Question: With “MGSDKIHHHHHHMFSVEQLQAFITTVETGSFSAAARRLNKVQSVVSQHVINLEVDCNILLFDRSGRYPALTEAGEKLLPHAQAVIDQHQRLKNSALSLTDNTPKEITIALDEGISFKLISGIISNLQNEFPNITLEFLSASSPDIIDMLKNEKALTGIVFSELTIPSYLDFECIGSIKFDLYVAKSHPLANQVCKNIDSLRLHRQLLIRSRNTQSSSFQLKLSPNVWYADNYFLLLELALQGNGWCLLPNHIANESVESGQLVKLPLEFEEMGWQANVDVVQHQRHSNLAVFKVLRLLLRNLL” as the sequence, how does the “soluble on expression in E. coli” value read?
Answer: Its value is “not soluble”.

Question: Which “soluble on expression in E. coli” value does the source give for “MGSDKIHHHHHHMGAMRPNQTFSHKAAVKLRSVEFLQYAGVTKFHDVILTSLVDINIGIGKRGSAQIKLPYTCVSGSLANTSGTADISLAYTHAVLVKDTYQLLGTLGGKLPTNNADKLSSDGRPLPMYYQTSLGTNDLVVGLSFITRKWLLATGYQHAFNQIGNDFRWSEWNSSAQRTEALEYPPSWNLKRGSDVMFRIERNFRSTKWNAYLGLLTIYRITPDQVSKGTSENRVEVPNTTGPAITALSGAGYRFSTAVALKAMVGVKIINRDTNPDGLSREFVSSLSVEIRL” here?
Answer: Its value is “not soluble”.

Question: With “MGSDKIHHHHHHMGARLKHYGWGREGEGMNEAEQAFVLGRYKAKFGRDSFDTVEVAHLDDIKLREPRIVPPKSLSEICAVDVYHRAAHAYGKSYPDYVRGMLGDYDAAPDVVAYPRDEAEIAAVMDWAGGAGAALTPFGGGSSVCGGVECRVDGNRHKAAVTLDLRHLGKVLEVDATSRAALIQGGAYGPALEAQLKPHNVTLRHFPQSFEYSTLGGWIATRSGGHYASLYTHIDDFVESVRVVTPRGVLETRRLPGSGAGPSPDRMFIGSEGILGVISAAWMRLQSRPRFRAGASVRFPSFFAAARAVRAVAQAGLYPSNCRILDPQEAYNTGAADGSVAIMVLAFESGDHPVEPWMARALECCADHGGIREEAEASSGHLEGAAGLWRNAFIRMPYAREFLTPAGLINDTFETSITWERFESFHDSVKTVTEQAILDATGIKGEVTCRFTHVYPDGPAPYFSFHALGRHGELLEQWQAIKDAASDALIAAGGTITHHHAVGRDHRKWYDRQRPDLFAVALRAAKRELDPQAMLNPGVLIDP” as the sequence, how does the “soluble on expression in E. coli” value read?
Answer: The value was “not soluble”.

Question: Which “soluble on expression in E. coli” value does the source give for “MGSDKIHHHHHHMGDVTVKDYKGGTIEDPEELKSNQTILTIDQAKYFNFKVDDVDKAQSNILLVDKGMGRASYAVQDVIDKFIAALVKDAKIKIGSTSKPIEITVANAYDTLVDLGVELDNKNVPRVGRFAILPPFYLGLLSKDPRFTKDFKILENGVVEGATVSGFKLMMSNNVPFSANNYSIMAGTDMAISYAGQVTEIEAYRPEKSFSDAMKGLYVFGAKVVQPDCLACLTVKQKVAEV” here?
Answer: The value was “not soluble”.

Question: Which “soluble on expression in E. coli” value does the source give for “MGSDKIHHHHHHMGHDLPPLPSRDVHAVRWYVLSLPACHKGPAKGLKKELDRRVRLGEPTFDFFAPSFVEMRRREGHLVETHRPLLYNYVFIRSSVYEIFRLKRDFPLYNFLPSVDGRGSYPFVSDREMENLRWVARSYSDELPVYVPEAGYLRKGDRIRITDGRFKGVEASVVIQPGVGEREVMVCVDNWMWVPLLRVQPGEYEVISLAEEGKHVYTRLDNSRIQNGLHEALGRHWGSCGVTAADRELAAETLRTYGELQLDSAVMRCKLYSLLLPAYTILGDEERQKSLIGTIVSFLSLIRAEQSLALLLLTLYGCTDSSIYYYRAHELIDPWSRESSPKKSKLSLIRRLADYDRWLKHNE” here?
Answer: Its value is “not soluble”.

Question: For “MGSDKIHHHHHHMGIENMKICIVSFTKKGYELSCDIAYKLEKSAYEVEVFTKCSRLSDENIKNSTDENYRNTGYISQNISDWTAAQMSEKKALIFIGACGIAVRAIASSVNNKLKDSPVIVIDELGKFVIPILSGHVGGANEFAVLLAALMNATPVITTATDINNKFAVDVFAKKCRLAIVNKDGIARVSSKVLAGEVVTMSVDWEHIPAKHRSLIKAFLDKADMSADAIKTVDFPPAYGADIVVSCEKEKDTKNGSIYLKPTQFVLGIGCRRDTAFENIDRAIRQSLLKLQIDISDIDMIASIDVKKDEPGIKEFCERNRIEFVTYTADELMAVQGEFSASQFVREHVGVDNVCERAAVLACSRECDKAGELIYKKHKYDRVTVAAARYPD”, which “soluble on expression in E. coli” value is on record?
Answer: Its value is “not soluble”.

Question: For “MGSDKIHHHHHHMGKFLVEREQMRYPVDVYTGKIQAYPEGKPSAIAKIQVDGELMLTELGLEGDEQAEKKVHGGPDRALCHYPREHYLYWAREFPEQAELFVAPAFGENLSTDGLTESNVYMGDIFRWGEALIQVSQPRSPCYKLNYHFDISDIAQLMQNTGKVGWLYSVIAPGKVSADAPLELVSRVSDVTVQEAAAIAWHMPFDDDQYHRLLSAAGLSKSWTRTMQKRRLSGKIEDFSRRLWGK”, which “soluble on expression in E. coli” value is on record?
Answer: The value was “not soluble”.

Question: Which “soluble on expression in E. coli” value does the source give for “MGSDKIHHHHHHMGKPRIVILGGGFGGLYTARALHRTFRDTAEIEVITAENYFVFQPLLPEVGAGSVTPIHATSPYRFLLKGVGIRKAMIDSVDFAAKRVTVFQGVQRRPTEVPYDHLVVALGQTVDLSRTPGLEAHALTMKTLEDARRLRAHVIERLEHADITNLPEVKRGALTFTVIGGGFSGIETVGEMAELIDRSLKYYPNVSRDEVRIIVLEFADKVLAEMPEKLRAYAQAQLEKRGVEVCLNTGIASATGTQITTTDGDVIDTRTVVATIGNAPAPVVKRMDLPLTQGRIAVERDLSVPGRDGVWSLGDCALIPMVEDANAREDYAPPTAQFAVREAKQLAANIKRAVDGTALKPFEYTSKGSMASLGARRGIADVMGIRLTGFLAWVLWRAYYVAFLPGFPAKVWVLSHWVLDWVTPRSLVNLSSPKTDASRHIRYAKGDRIYETGNRADTFFTIIEGAVEITNAKGHDGQPTTRRIEPGGHFGERLILGATRRVATARALEDTVVLAMGRDEFLKLTRALPALRDYFEAHLAEKGLDWAPEPDERRDAAE” here?
Answer: Its value is “not soluble”.

Question: With “MGSDKIHHHHHHMGLGHEQGFGAPCLKCKENCEGFELHFWRKICRNCKCGQEEHDVLLSNEEDRKVGRLFEDTKYTTLIAKLKSDGIPMYKRNVMILTNPVAAKKNVSINTVTYEWAPPVQNQALARQYMQMLPKEKQPVAGSEGAQYRKKQLAKQLPAHDQDPSKCHELSPKEVKEMEQFVKKYKSEALGVGDVKFPSEMNAQGDKVHNPAGDRHAPAAVASKDKSAESKKTQYSCYCCKHTMNEGEPAIYAERAGYDKLWHPACFICSTCGELLVDMIYFWKNGKLYCGRHYCDSEKPRCAGCDELIFSNEYTQAENQNWHLKHFCCFDCDHILAGKIYVMVTDKPVCKPCYVKNHAVVCQGCHNAIDPEVQRVTYNNFSWHASTECFLCSCCSKCLIGQKFMPVEGMVFCSVECKRMMS” as the sequence, how does the “soluble on expression in E. coli” value read?
Answer: Its value is “soluble”.
